No end group written: not given here. Me3 = trimethyl-lysine

What all share (conditions): both partners purified
One assay deals with T1, KDM4A-DTD N931D (human, UniProt O75164 895-1011, N931D).
T1 construct: Human KDM4A double tudor domain, residues 895-1011 of UniProt O75164 (isoform 1); source: E. coli BL21 (DE3), purified (Ni-NTA)
T1 sequence (looked up): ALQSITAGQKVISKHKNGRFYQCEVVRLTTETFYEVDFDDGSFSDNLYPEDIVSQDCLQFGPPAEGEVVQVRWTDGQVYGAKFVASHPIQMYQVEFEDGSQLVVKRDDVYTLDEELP
Nature of the assay: fluorescence polarisation; fluorescein-labelled histone peptide 3 nM, KDM4 DTD titrated 0.1-100 μM; 30 mM HEPES, 150 mM NaCl pH 7.4, 0.01% Triton X-100. Background: Polarisation of emitted light reports the rotation of a fluorescent probe.

For assay [1], the target named is T2, KDM4A double tudor domain (KDM4A-DTD), His6 tag cleaved, for crystallization (human, UniProt O75164 895-1011).
T2 construct: Human KDM4A double tudor domain, residues 895-1011 of UniProt O75164 (isoform 1); pET28 construct (pET28b in the plasmid section, pET28a in the purification section); also called N-His6-KDM4A-DTD; source: E. coli BL21 (DE3), purified (HisTrap, thrombin cleavage, gel filtration); not shown: His6, N-terminal, cleaved
T2 sequence (looked up): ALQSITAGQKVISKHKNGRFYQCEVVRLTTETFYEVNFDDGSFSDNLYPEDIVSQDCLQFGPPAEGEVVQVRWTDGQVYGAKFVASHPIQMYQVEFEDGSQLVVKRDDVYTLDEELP
Nature of the assay: crystal structure; KDM4A-DTD mixed with H3K23me3 peptide at about 1:1.5, crystallized at 20 °C in 100 mM CAPS pH 10.5, 200 mM lithium sulfate, 1.2 M NaH2PO4, 0.8 M K2HPO4.

The target in the next assay is T3, KDM4B-DTD N960A (human, UniProt O94953 917-1031, N960A).
T3 construct: Human KDM4B double tudor domain, residues 917-1031 of UniProt O94953 (isoform 1); also called N960A variant; source: E. coli BL21 (DE3), purified (Ni-NTA)
T3 sequence (looked up): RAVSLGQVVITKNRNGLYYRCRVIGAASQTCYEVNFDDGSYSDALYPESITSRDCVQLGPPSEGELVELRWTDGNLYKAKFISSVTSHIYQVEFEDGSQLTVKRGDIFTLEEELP
Nature of the assay: fluorescence polarisation; fluorescein-labelled histone peptide 3 nM, KDM4 DTD titrated 0.1-100 μM; 30 mM HEPES, 150 mM NaCl pH 7.4, 0.01% Triton X-100.

In a further assay the target is T4, KDM4B-DTD S965D (human, UniProt O94953 917-1031, S965D).
T4 construct: Human KDM4B double tudor domain, residues 917-1031 of UniProt O94953 (isoform 1); also called KDM4B-S965D; source: E. coli BL21 (DE3), purified (Ni-NTA)
T4 sequence (looked up): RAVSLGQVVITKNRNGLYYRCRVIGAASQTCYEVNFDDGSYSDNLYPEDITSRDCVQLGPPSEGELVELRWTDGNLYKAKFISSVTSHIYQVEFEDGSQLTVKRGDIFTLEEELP
The description is as above.

In assay [2] the target is T5, KDM4C double tudor domain (KDM4C-DTD), HaloTag-tagged, wild type (human, UniProt Q9H3R0 877-991).
T5 construct: Human KDM4C double tudor domain, residues 877-991 of UniProt Q9H3R0 (isoform 1); pFN29 construct; also called HT-KDM4 DTD; source: E. coli BL21 (DE3), purified (Ni-NTA); not shown: HaloTag, N-terminal, kept
T5 sequence (looked up): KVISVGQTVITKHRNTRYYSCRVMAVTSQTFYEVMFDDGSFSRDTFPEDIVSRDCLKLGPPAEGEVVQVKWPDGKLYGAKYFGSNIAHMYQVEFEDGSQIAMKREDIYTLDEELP
The description is as above.

B1: H3K14me3 peptide, fluorescein-labelled (peptide)
chain: ARKSTGGK(Me3)APRKQLATK
modifications: also: fluorescein label, end not given here
By Kd is commonly meant the constant that tells how readily two partners part at equilibrium. On to B1, for which the Kd with KDM4A-DTD N931D was found to be 12.2 µM.

B2: H3 (19-28) K23me3 peptide for co-crystallization (peptide, UniProt P68431 20-29, looked up)
peptide: QLATK(Me3)AARKS
notes: density seen for Q19-K27; also called H3K23me3 peptide; H3 (19-27) K23me3 peptide; source: synthetic peptide, bought: Peptide 2.0
B2: the binding result in assay [1] is recorded as “binds”.

B3: H3K4me3 peptide, fluorescein-labelled (peptide)
chain: ARTK(Me3)QTARKSTGGK
modifications: also: fluorescein label, end not given here
As for B3, the Kd was 303 µM in the assay with KDM4B-DTD N960A, about 200 µM with KDM4B-DTD S965D and 6.8 µM in assay [2].

Values taken from publication PMC5114558, “Reader domain specificity and lysine demethylase-4 family function” (Nature Communications, 2016).
